Data reported in the supplement of paper PMC9112550, “Optimization of the antimicrobial peptide Bac7 by deep mutational scanning” (BMC Biology, 2022).

test system: Escherichia coli TOP10; assay: shrunken log2 fold change of peptide-encoding DNA abundance (4.5 h post-induction vs induction); higher = less antimicrobial activity (less host growth inhibition); conditions: time post-induction: 4.5 h; library: site-saturation at positions 5, 18, 19, 20
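Also: peptides expressed intracellularly from a pBAD plasmid library in pooled LB shake-flask culture, induced with 0.3% L-arabinose, DNA abundance read by NGS, three biological replicates, DESeq2 with apeglm shrinkage.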

Row | Sequence | shrunken log2 fold change
1 | RRIRLRPPRLPRPRPRPDLEPRP | 0.0992
2 | RRIRMRPPRLPRPRPRPGWDPRP | 0.297
3 | RRIRIRPPRLPRPRPRPMDHPRP | -0.0898
4 | RRIRHRPPRLPRPRPRPPDTPRP | -0.071
5 | RRIRMRPPRLPRPRPRPKIFPRP | 0.0739
6 | RRIRFRPPRLPRPRPRPMYTPRP | -0.00812
7 | RRIRMRPPRLPRPRPRPQGVPRP | -0.0179
8 | RRIRERPPRLPRPRPRPQMPPRP | -0.292
9 | RRIRARPPRLPRPRPRPHYEPRP | -0.234
10 | RRIRQRPPRLPRPRPRPHYNPRP | -1.22
11 | RRIRNRPPRLPRPRPRPHYRPRP | -0.0488
12 | RRIRERPPRLPRPRPRPVIYPRP | -0.248
13 | RRIRNRPPRLPRPRPRPVNFPRP | -0.157
14 | RRIRNRPPRLPRPRPRPAYKPRP | -0.128
15 | RRIRNRPPRLPRPRPRPVYCPRP | -0.688
16 | RRIRPRPPRLPRPRPRPRVHPRP | -0.0821
17 | RRIRKRPPRLPRPRPRPYEVPRP | -0.205
18 | RRIRLRPPRLPRPRPRPRVWPRP | 0.655
19 | RRIRERPPRLPRPRPRPYGGPRP | -0.286
20 | RRIRYRPPRLPRPRPRPLLWPRP | -0.246
21 | RRIRRRPPRLPRPRPRPWKNPRP | 0.206
22 | RRIRVRPPRLPRPRPRPDIVPRP | -0.229
23 | RRIRMRPPRLPRPRPRPPVEPRP | 0.664
24 | RRIRQRPPRLPRPRPRPHNMPRP | -0.283
25 | RRIRIRPPRLPRPRPRPQSIPRP | -0.0763

Row | Sequence | shrunken log2 fold change
26 | RRIRARPPRLPRPRPRPIKLPRP | -0.16
27 | RRIRGRPPRLPRPRPRPTEIPRP | 0.284
28 | RRIRYRPPRLPRPRPRPPEWPRP | 0.0503
29 | RRIRSRPPRLPRPRPRPDQCPRP | -0.209
30 | RRIRVRPPRLPRPRPRPDPQPRP | 0.52
31 | RRIRERPPRLPRPRPRPASLPRP | 0.0301
32 | RRIRVRPPRLPRPRPRPVVTPRP | 0.0368
33 | RRIRCRPPRLPRPRPRPRRRPRP | 0.496
34 | RRIRSRPPRLPRPRPRPHWEPRP | -0.0851
35 | RRIRPRPPRLPRPRPRPSIPPRP | -0.436
36 | RRIRRRPPRLPRPRPRPFRSPRP | -0.0534
37 | RRIRGRPPRLPRPRPRPETEPRP | 2.25
38 | RRIRARPPRLPRPRPRPNGQPRP | 0.208
39 | RRIRVRPPRLPRPRPRPTDCPRP | -0.184
40 | RRIRYRPPRLPRPRPRPYPLPRP | -0.146
41 | RRIRFRPPRLPRPRPRPKDRPRP | 0.148
42 | RRIRERPPRLPRPRPRPQHRPRP | 0.152
43 | RRIRNRPPRLPRPRPRPPMRPRP | 1.05
44 | RRIRQRPPRLPRPRPRPMENPRP | -0.0199
45 | RRIRKRPPRLPRPRPRPAQMPRP | 0.139
46 | RRIRVRPPRLPRPRPRPNGQPRP | 0.0697
47 | RRIRFRPPRLPRPRPRPDGTPRP | -0.256
48 | RRIRRRPPRLPRPRPRPQLGPRP | 0.0467
49 | RRIRYRPPRLPRPRPRPLKNPRP | -0.337
50 | RRIRWRPPRLPRPRPRPFVPPRP | -0.266

Row | Sequence | shrunken log2 fold change
51 | RRIRQRPPRLPRPRPRPQPTPRP | 0.163
52 | RRIRIRPPRLPRPRPRPMQVPRP | 0.00763
53 | RRIRCRPPRLPRPRPRPYHCPRP | -0.271
54 | RRIRERPPRLPRPRPRPRYVPRP | -0.0655
55 | RRIRYRPPRLPRPRPRPEIYPRP | -0.279
56 | RRIRFRPPRLPRPRPRPWYYPRP | -0.735
57 | RRIRSRPPRLPRPRPRPTLLPRP | 0.227
58 | RRIRHRPPRLPRPRPRPGSMPRP | -0.099
59 | RRIRNRPPRLPRPRPRPRAWPRP | -0.054
60 | RRIRRRPPRLPRPRPRPSSHPRP | -0.0976
61 | RRIRWRPPRLPRPRPRPWSMPRP | -0.269
62 | RRIRHRPPRLPRPRPRPGWSPRP | 0.0123
63 | RRIRKRPPRLPRPRPRPVSEPRP | 0.189
64 | RRIRMRPPRLPRPRPRPKPHPRP | 1.19
65 | RRIRKRPPRLPRPRPRPFWRPRP | 0.00905
66 | RRIRKRPPRLPRPRPRPFSPPRP | -0.102
67 | RRIRWRPPRLPRPRPRPPVVPRP | 0.13
68 | RRIRFRPPRLPRPRPRPISEPRP | -0.0674
69 | RRIRSRPPRLPRPRPRPGNDPRP | 0.111
70 | RRIRNRPPRLPRPRPRPKKEPRP | 0.0493
71 | RRIRCRPPRLPRPRPRPGYKPRP | -0.0902
72 | RRIRNRPPRLPRPRPRPVAFPRP | -0.119
73 | RRIRYRPPRLPRPRPRPSDVPRP | -0.199
74 | RRIRQRPPRLPRPRPRPDRFPRP | 0.0204
75 | RRIRMRPPRLPRPRPRPMPVPRP | 0.064

Row | Sequence | shrunken log2 fold change
76 | RRIRIRPPRLPRPRPRPPNCPRP | -1.06
77 | RRIRCRPPRLPRPRPRPQLLPRP | -0.23
78 | RRIRWRPPRLPRPRPRPDRMPRP | 0.0163
79 | RRIRPRPPRLPRPRPRPGNFPRP | -0.25
80 | RRIRFRPPRLPRPRPRPCDIPRP | -0.0737
81 | RRIRDRPPRLPRPRPRPTAWPRP | 1.51
82 | RRIRNRPPRLPRPRPRPRFAPRP | 0.164
83 | RRIRCRPPRLPRPRPRPVTPPRP | 0.23
84 | RRIRFRPPRLPRPRPRPTERPRP | -0.22
85 | RRIRKRPPRLPRPRPRPAFMPRP | 0.341
86 | RRIRVRPPRLPRPRPRPAHWPRP | 0.313
87 | RRIRLRPPRLPRPRPRPNVLPRP | -0.304
88 | RRIRGRPPRLPRPRPRPSMIPRP | 0.267
89 | RRIRNRPPRLPRPRPRPDHNPRP | -0.245
90 | RRIRGRPPRLPRPRPRPIQAPRP | 1.16
91 | RRIRWRPPRLPRPRPRPNMWPRP | 0.0493
92 | RRIRERPPRLPRPRPRPFQCPRP | -0.018
93 | RRIRTRPPRLPRPRPRPIGNPRP | -0.0759
94 | RRIRMRPPRLPRPRPRPMPHPRP | 0.161
95 | RRIRARPPRLPRPRPRPSNPPRP | -0.0677
96 | RRIRFRPPRLPRPRPRPKIMPRP | -0.624
97 | RRIRKRPPRLPRPRPRPLTMPRP | 0.185
98 | RRIRRRPPRLPRPRPRPMRMPRP | 0.119
99 | RRIRTRPPRLPRPRPRPINIPRP | -0.208
100 | RRIRARPPRLPRPRPRPYCHPRP | -0.381

Row | Sequence | shrunken log2 fold change
101 | RRIRFRPPRLPRPRPRPNGGPRP | 0.000932
102 | RRIRVRPPRLPRPRPRPPQHPRP | 0.186
103 | RRIRYRPPRLPRPRPRPCTLPRP | 0.0191
104 | RRIRWRPPRLPRPRPRPCAGPRP | 0.0556
105 | RRIRVRPPRLPRPRPRPYFVPRP | 0.263
106 | RRIRLRPPRLPRPRPRPHQEPRP | -0.00192
107 | RRIRHRPPRLPRPRPRPVFFPRP | -0.0644
108 | RRIRIRPPRLPRPRPRPTGHPRP | -0.116
109 | RRIRLRPPRLPRPRPRPSNWPRP | -0.196
110 | RRIRHRPPRLPRPRPRPQMYPRP | -0.0219
111 | RRIRFRPPRLPRPRPRPYNYPRP | -1.03
112 | RRIRYRPPRLPRPRPRPGAEPRP | 0.227
113 | RRIRQRPPRLPRPRPRPGKLPRP | -0.0396
114 | RRIRYRPPRLPRPRPRPCCSPRP | -0.141
115 | RRIRERPPRLPRPRPRPDDNPRP | 0.0486
116 | RRIRVRPPRLPRPRPRPCAPPRP | -0.22
117 | RRIRWRPPRLPRPRPRPLQDPRP | -0.0523
118 | RRIRLRPPRLPRPRPRPNLMPRP | -0.367
119 | RRIRRRPPRLPRPRPRPMDAPRP | 0.161
120 | RRIRLRPPRLPRPRPRPWKQPRP | -0.0134
121 | RRIRERPPRLPRPRPRPCFLPRP | -0.647
122 | RRIRGRPPRLPRPRPRPQYAPRP | 0.285
123 | RRIRKRPPRLPRPRPRPFEDPRP | -0.136
124 | RRIRERPPRLPRPRPRPIFCPRP | 0.0456
125 | RRIRKRPPRLPRPRPRPMVCPRP | 0.00938
